Source: article doi:10.1101/2022.11.05.515292

Legend:
[1] = target: T1, Upstream Binding Transcription Factor (UBF), recombinant, P17480; test: mass photometry; settings: remark: other sources report otherwise
T1 chain: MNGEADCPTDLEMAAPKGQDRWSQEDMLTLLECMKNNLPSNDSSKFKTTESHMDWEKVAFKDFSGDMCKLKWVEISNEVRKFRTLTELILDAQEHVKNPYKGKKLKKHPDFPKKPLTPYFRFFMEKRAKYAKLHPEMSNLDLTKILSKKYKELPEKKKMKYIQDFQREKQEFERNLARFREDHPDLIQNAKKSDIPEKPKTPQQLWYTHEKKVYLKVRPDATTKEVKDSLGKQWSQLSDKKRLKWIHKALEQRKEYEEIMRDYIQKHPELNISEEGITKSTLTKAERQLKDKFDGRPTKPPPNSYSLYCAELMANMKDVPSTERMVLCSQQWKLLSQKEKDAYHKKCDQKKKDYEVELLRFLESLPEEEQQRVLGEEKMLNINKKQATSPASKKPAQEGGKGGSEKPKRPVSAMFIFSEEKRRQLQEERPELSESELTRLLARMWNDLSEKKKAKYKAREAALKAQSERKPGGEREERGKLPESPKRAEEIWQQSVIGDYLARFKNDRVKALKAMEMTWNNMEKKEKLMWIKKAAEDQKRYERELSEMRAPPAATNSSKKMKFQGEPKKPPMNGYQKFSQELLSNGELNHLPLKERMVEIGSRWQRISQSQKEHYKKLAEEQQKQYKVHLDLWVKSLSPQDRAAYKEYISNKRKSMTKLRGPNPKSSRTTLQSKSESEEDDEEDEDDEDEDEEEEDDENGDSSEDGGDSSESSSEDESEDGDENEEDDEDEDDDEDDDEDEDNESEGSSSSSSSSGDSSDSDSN

[2] = target: T1, Upstream Binding Transcription Factor …; test: SDS-PAGE without sample heating, with densitometry; settings: remark: other sources report otherwise

stoichiometry N [1]: 4
stoichiometry N [2]: 4
B1: Upstream Binding Transcription Factor (UBF), recombinant, P17480 1-764 (natural protein)
chain: T1 chain
